Reference: paper PMC4109839, “Fibrin binds to collagen and provides a bridge for αVβ3 integrin-dependent contraction of collagen gels” (Biochemical Journal, 2014)

Legend:
[1] = molecular target: T1, PureCol native bovine dermal collagen type I (bovine, UniProt P02453 162-1217; P02465 80-1117); assay: ELISA; solid-phase assay: plates coated with 10 μg/ml native or denatured Col I, blocked with 2% BSA; biotinylated fibrinogen in 0.5% BSA in Ca2+- and Mg2+-free PBS pH 7.4, 2 h at 37°C; avidin-alkaline phosphatase; conditions: both partners purified
T1 construct: collagen α1(I) chain, bovine (Bos taurus), from dermis; collagen α2(I) chain, bovine; Native triple helix; Prolines are in part hydroxylated in the tissue protein; also called Col I; native Col I; source: bought: Advanced Biomatrix (PureCol, 3 mg/ml)
T1 sequence (P02453 162-1217, chain 1 of 2): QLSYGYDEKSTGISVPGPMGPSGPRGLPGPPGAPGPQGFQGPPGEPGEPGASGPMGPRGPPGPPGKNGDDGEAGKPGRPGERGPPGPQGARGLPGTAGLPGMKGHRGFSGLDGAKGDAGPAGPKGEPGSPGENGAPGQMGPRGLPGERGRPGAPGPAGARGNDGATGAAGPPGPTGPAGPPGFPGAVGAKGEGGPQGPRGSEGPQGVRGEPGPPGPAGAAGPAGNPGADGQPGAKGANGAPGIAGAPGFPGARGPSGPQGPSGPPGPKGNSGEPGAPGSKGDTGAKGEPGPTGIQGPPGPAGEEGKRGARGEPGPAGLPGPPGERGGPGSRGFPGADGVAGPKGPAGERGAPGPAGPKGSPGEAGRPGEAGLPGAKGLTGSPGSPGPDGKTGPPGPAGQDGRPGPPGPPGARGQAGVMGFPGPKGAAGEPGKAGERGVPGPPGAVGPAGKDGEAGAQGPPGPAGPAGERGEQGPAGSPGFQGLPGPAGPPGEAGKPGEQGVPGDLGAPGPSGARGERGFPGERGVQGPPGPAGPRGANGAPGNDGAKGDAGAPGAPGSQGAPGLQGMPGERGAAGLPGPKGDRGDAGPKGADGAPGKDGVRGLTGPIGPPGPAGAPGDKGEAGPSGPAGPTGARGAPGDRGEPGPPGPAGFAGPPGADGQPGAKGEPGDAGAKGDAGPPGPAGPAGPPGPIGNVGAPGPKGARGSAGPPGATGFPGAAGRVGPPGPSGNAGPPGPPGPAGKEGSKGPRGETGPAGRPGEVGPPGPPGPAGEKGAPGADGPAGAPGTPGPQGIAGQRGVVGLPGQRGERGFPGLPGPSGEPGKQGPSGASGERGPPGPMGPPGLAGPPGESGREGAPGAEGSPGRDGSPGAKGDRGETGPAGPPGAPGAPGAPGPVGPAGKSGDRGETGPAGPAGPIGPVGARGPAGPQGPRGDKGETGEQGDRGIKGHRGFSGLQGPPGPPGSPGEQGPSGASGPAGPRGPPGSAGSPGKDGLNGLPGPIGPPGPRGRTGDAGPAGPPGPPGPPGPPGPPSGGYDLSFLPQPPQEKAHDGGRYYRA
T1 sequence (P02465 80-1117, chain 2 of 2): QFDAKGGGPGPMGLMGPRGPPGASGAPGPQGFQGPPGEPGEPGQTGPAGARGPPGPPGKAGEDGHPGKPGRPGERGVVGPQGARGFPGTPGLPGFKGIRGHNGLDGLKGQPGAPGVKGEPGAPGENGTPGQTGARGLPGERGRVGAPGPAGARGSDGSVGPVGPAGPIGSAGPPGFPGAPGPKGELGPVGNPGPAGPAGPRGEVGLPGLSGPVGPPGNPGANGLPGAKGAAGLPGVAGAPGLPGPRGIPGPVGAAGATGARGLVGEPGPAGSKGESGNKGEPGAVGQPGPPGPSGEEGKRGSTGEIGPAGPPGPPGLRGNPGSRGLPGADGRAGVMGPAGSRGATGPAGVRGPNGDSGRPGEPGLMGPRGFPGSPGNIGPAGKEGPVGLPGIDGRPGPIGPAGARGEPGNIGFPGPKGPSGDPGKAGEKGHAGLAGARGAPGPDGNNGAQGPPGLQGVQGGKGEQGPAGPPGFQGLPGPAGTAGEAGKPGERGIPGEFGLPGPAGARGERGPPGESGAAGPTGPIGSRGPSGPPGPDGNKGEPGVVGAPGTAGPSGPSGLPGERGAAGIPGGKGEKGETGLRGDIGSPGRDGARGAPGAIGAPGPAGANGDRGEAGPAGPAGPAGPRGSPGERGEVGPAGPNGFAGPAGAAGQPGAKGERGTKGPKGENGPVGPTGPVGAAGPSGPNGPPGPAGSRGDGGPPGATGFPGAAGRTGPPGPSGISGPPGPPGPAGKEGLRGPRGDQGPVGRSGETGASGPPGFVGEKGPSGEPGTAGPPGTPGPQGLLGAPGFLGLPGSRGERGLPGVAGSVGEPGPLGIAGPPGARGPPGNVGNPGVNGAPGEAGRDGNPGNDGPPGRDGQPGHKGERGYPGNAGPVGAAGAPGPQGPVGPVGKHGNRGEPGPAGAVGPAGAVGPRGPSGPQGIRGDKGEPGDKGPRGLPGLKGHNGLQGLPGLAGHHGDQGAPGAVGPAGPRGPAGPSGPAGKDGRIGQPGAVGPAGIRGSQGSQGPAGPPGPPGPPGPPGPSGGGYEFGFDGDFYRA

[2] = molecular target: T1, PureCol native bovine dermal collagen …; assay: SPR; Col I (PureCol bovine dermal and mouse-tail tendon) coupled to a BiaCore C1 chip; freshly dissolved, filtered fibrinogen in PBS passed over the chip, then wash-out; conditions: both partners purified

Binder	EC50 [1] [µM]	EC50 [2] [µM]
biotinylated human plasma fibrinogen (natural protein, biotin (biotin N-hydroxysuccinimide ester; which chains and residues not stated) | biotin (biotin N-hydroxysuccinimide ester; which chains and residues not stated) | biotin (biotin N-hydroxysuccinimide ester; which chains and residues not stated)) chain 1: ADSGEGDFLAEGGGVRGPRVVERHQSACKDSDWPFCSDEDWNYKCPSGCRMKGLIDEVNQDFTNRINKLKNSLFEYQKNNKDSHSLTTNIMEILRGDFSSANNRDNTYNRVSEDLRSRIEVLKRKVIEKVQHIQLLQKNVRAQLVDMKRLEVDIDIKIRSCRGSCSRALAREVDLKDYEDQQKQLEQVIAKDLLPSRDRQHLPLIKMKPVPDLVPGNFKSQLQKVPPEWKALTDMPQMRMELERPGGNEITRGGSTSYGTGSETESPRNPSSAGSWNSGSSGPGSTGNRNPGSSGTGGTATWKPGSSGPGSTGSWNSGSSGTGSTGNQNPGSPRPGSTGTWNPGSSERGSAGHWTSESSVSGSTGQWHSESGSFRPDSPGSGNARPNNPDWGTFEEVSGNVSPGTRREYHTEKLVTSKGDKELRTGKEKVTSGSTTTTRRSCSKTVTKTVIGPDGHKEVTKEVVTSEDGSDCPEAMDLGTLSGIGTLDGFRHRHPDEAAFFDTASTGKTFPGFFSPMLGEFVSETESRGSESGIFTNTKESSSHHPGIAEFPSRGKSSSYSKQFTSSTSYNRGDSTFESKSYKMADEAGSEADHEGTHSTKRGHAKSRPV chain 2: QGVNDNEEGFFSARGHRPLDKKREEAPSLRPAPPPISGGGYRARPAKAAATQKKVERKAPDAGGCLHADPDLGVLCPTGCQLQEALLQQERPIRNSVDELNNNVEAVSQTSSSSFQYMYLLKDLWQKRQKQVKDNENVVNEYSSELEKHQLYIDETVNSNIPTNLRVLRSILENLRSKIQKLESDVSAQMEYCRTPCTVSCNIPVVSGKECEEIIRKGGETSEMYLIQPDSSVKPYRVYCDMNTENGGWTVIQNRQDGSVDFGRKWDPYKQGFGNVATNTDGKNYCGLPGEYWLGNDKISQLTRMGPTELLIEMEDWKGDKVKAHYGGFTVQNEANKYQISVNKYRGTAGNALMDGASQLMGENRTMTIHNGMFFSTYDRDNDGWLTSDPRKQCSKEDGGGWWYNRCHAANPNGRYYWGGQYTWDMAKHGTDDGVVWMNWKGSWYSMRKMSMKIRPFFPQQ chain 3: YVATRDNCCILDERFGSYCPTTCGIADFLSTYQTKVDKDLQSLEDILHQVENKTSEVKQLIKAIQLTYNPDESSKPNMIDAATLKSRKMLEEIMKYEASILTHDSSIRYLQEIYNSNNQKIVNLKEKVAQLEAQCQEPCKDTVQIHDITGKDCQDIANKGAKQSGLYFIKPLKANQQFLVYCEIDGSGNGWTVFQKRLDGSVDFKKNWIQYKEGFGHLSPTGTTEFWLGNEKIHLISTQSAIPYALRVELEDWNGRTSTADYAMFKVGPEADKYRLTYAYFAGGDAGDAFDGFDFGDDPSDKFFTSHNGMQFSTWDNDNDKFEGNCAEQDGSGWWMNKCHAGHLNGVYYQGGTYSKASTPNGYDNGIIWATWKTRWYSMKKTTMKIIPFNRLTIGEGQQHHLGGAKQAGDV	~0.07	
human plasma fibrinogen (natural protein, fibrinogen Aα-chain, human, from plasma; fibrinogen Bβ-chain, human, from plasma; fibrinogen γ-chain, human, from plasma; In the gel contraction assays it was converted into fibrin by thrombin; also called unlabelled fibrinogen; non-biotinylated fibrinogen; source: bought: Sigma-Aldrich; copies: 2 + 2 + 2) chain 1: ADSGEGDFLAEGGGVRGPRVVERHQSACKDSDWPFCSDEDWNYKCPSGCRMKGLIDEVNQDFTNRINKLKNSLFEYQKNNKDSHSLTTNIMEILRGDFSSANNRDNTYNRVSEDLRSRIEVLKRKVIEKVQHIQLLQKNVRAQLVDMKRLEVDIDIKIRSCRGSCSRALAREVDLKDYEDQQKQLEQVIAKDLLPSRDRQHLPLIKMKPVPDLVPGNFKSQLQKVPPEWKALTDMPQMRMELERPGGNEITRGGSTSYGTGSETESPRNPSSAGSWNSGSSGPGSTGNRNPGSSGTGGTATWKPGSSGPGSTGSWNSGSSGTGSTGNQNPGSPRPGSTGTWNPGSSERGSAGHWTSESSVSGSTGQWHSESGSFRPDSPGSGNARPNNPDWGTFEEVSGNVSPGTRREYHTEKLVTSKGDKELRTGKEKVTSGSTTTTRRSCSKTVTKTVIGPDGHKEVTKEVVTSEDGSDCPEAMDLGTLSGIGTLDGFRHRHPDEAAFFDTASTGKTFPGFFSPMLGEFVSETESRGSESGIFTNTKESSSHHPGIAEFPSRGKSSSYSKQFTSSTSYNRGDSTFESKSYKMADEAGSEADHEGTHSTKRGHAKSRPVRGIHTSPLGKPSLSP chain 2: QGVNDNEEGFFSARGHRPLDKKREEAPSLRPAPPPISGGGYRARPAKAAATQKKVERKAPDAGGCLHADPDLGVLCPTGCQLQEALLQQERPIRNSVDELNNNVEAVSQTSSSSFQYMYLLKDLWQKRQKQVKDNENVVNEYSSELEKHQLYIDETVNSNIPTNLRVLRSILENLRSKIQKLESDVSAQMEYCRTPCTVSCNIPVVSGKECEEIIRKGGETSEMYLIQPDSSVKPYRVYCDMNTENGGWTVIQNRQDGSVDFGRKWDPYKQGFGNVATNTDGKNYCGLPGEYWLGNDKISQLTRMGPTELLIEMEDWKGDKVKAHYGGFTVQNEANKYQISVNKYRGTAGNALMDGASQLMGENRTMTIHNGMFFSTYDRDNDGWLTSDPRKQCSKEDGGGWWYNRCHAANPNGRYYWGGQYTWDMAKHGTDDGVVWMNWKGSWYSMRKMSMKIRPFFPQQ chain 3: YVATRDNCCILDERFGSYCPTTCGIADFLSTYQTKVDKDLQSLEDILHQVENKTSEVKQLIKAIQLTYNPDESSKPNMIDAATLKSRKMLEEIMKYEASILTHDSSIRYLQEIYNSNNQKIVNLKEKVAQLEAQCQEPCKDTVQIHDITGKDCQDIANKGAKQSGLYFIKPLKANQQFLVYCEIDGSGNGWTVFQKRLDGSVDFKKNWIQYKEGFGHLSPTGTTEFWLGNEKIHLISTQSAIPYALRVELEDWNGRTSTADYAMFKVGPEADKYRLTYAYFAGGDAGDAFDGFDFGDDPSDKFFTSHNGMQFSTWDNDNDKFEGNCAEQDGSGWWMNKCHAGHLNGVYYQGGTYSKASTPNGYDNGIIWATWKTRWYSMKKTTMKIIPFNRLTIGEGQQHHLGGAKQAGDV		~0.01
